In patent publication US10159726B2, “Peptides, combination of peptides and scaffolds for use in immunotherapeutic treatment of various cancers” (Immatics Biotechnologies GmbH, priority 2015, dated 2018):

Target: HLA-A*02 (Homo sapiens, UniProt P04439, D140Y/D185E/D98H/E176V/E277Q/G131W/G231S/I119V/I121R/I166T/I218V/N151K/N90K/P208A/P217A/Q86G/Q94H/R138H/R169H)
Test: MHC binding assay, UV-ligand exchange with beta2m ELISA, HLA-A*02
Conditions: peptide exchange yield
Excerpt: Candidate peptides for T cell based therapies according to the present invention were further tested for their MHC binding capacity (affinity). The individual peptide-MHC complexes were produced by UV-ligand exchange, where a UV-sensitive peptide is cleaved upon UV-irradiation, and exchanged with the peptide of interest as analyzed. Only peptide candidates that can effectively bind and stabilize the peptide-receptive MHC molecules prevent dissociation of the MHC complexes. To determine the yield of the exchange reaction, an ELISA was performed based on the detection of the light chain (β2m) of stabilized MHC complexes. The assay was performed as generally described in Rodenko et al. (Rodenko et al., 2006).
96 well MAXISorp plates (NUNC) were coated over night with 2 ug/ml streptavidin in PBS at room temperature, washed 4× and blocked for 1 h at 37° C. in 2% BSA containing blocking buffer. […] Peptide-MHC monomers of the UV-exchange reaction were diluted 100 fold in blocking buffer. Samples were incubated for 1 h at 37° C., washed four times, incubated with 2 ug/ml HRP conjugated anti-β2m for 1 h at 37° C., washed again and detected with TMB solution that is stopped with […]. Absorption was measured at 450 nm. Candidate peptides that show a high exchange yield (preferably higher than 50%, most preferred higher than 75%) are generally preferred for a generation and production of antibodies or fragments thereof, and/or T cell receptors or fragments thereof, as they show sufficient avidity to the MHC molecules and prevent dissociation of the MHC complexes.

Substance	MHC class I binding score, Peptide exchange
340 (SVAKTILKR; listed as Homo sapiens) [compound 340]	++ (20%-49% = ++)
23 (AQTVVVIKA; listed as Homo sapiens) [compound 23]	+ (<20% = +)
52 (ELLSSIFFL; listed as Homo sapiens) [compound 52]	+++ (50%-75% = +++)
84 (FLEEEITRV; listed as Homo sapiens) [compound 84]	+++ (50%-75% = +++)
78 (LLWGHPRVA; listed as Homo sapiens) [compound 78]	+++ (50%-75% = +++)
35 (YVLPKLYVKL; listed as Homo sapiens) [compound 35]	++ (20%-49% = ++)
46 (SLAKHGIVAL; listed as Homo sapiens) [compound 46]	+++ (50%-75% = +++)
72 (GMIGFQVLL; listed as Homo sapiens) [compound 72]	+++ (50%-75% = +++)
82 (VLLRVLIL; listed as Homo sapiens) [compound 82]	++ (20%-49% = ++)
1 (PLWGKVFYL; listed as Homo sapiens) [compound 1]	++ (20%-49% = ++)
19 (TLLPTVLTL; listed as Homo sapiens) [compound 19]	+++ (50%-75% = +++)
79 (SLVPLQILL; listed as Homo sapiens) [compound 79]	++++ (>=75% = ++++)
90 (GAVAEEVLSSI; listed as Homo sapiens) [compound 90]	+ (<20% = +)
60 (FLIDTSASM; listed as Homo sapiens) [compound 60]	++ (20%-49% = ++)
11 (GVLKVFLENV; listed as Homo sapiens) [compound 11]	++ (20%-49% = ++)
44 (GLLWQIIKV; listed as Homo sapiens) [compound 44]	++ (20%-49% = ++)
75 (ILDNVKNLL; listed as Homo sapiens) [compound 75]	+++ (50%-75% = +++)
77 (IVLSTIASV; listed as Homo sapiens) [compound 77]	+++ (50%-75% = +++)
327 (SIGDIFLKY; listed as Homo sapiens) [compound 327]	+++ (50%-75% = +++)
335 (VLLAAGPSAA; listed as Homo sapiens) [compound 335]	++ (20%-49% = ++)
21 (SLYHRVLLY; listed as Homo sapiens) [compound 21]	++++ (>=75% = ++++)
13 (VLRDNIQGI; listed as Homo sapiens) [compound 13]	+++ (50%-75% = +++)
337 (KVLGKIEKV; listed as Homo sapiens) [compound 337]	+++ (50%-75% = +++)

Substance	MHC class I binding score, Peptide exchange
32 (ILADEAFFSV; listed as Homo sapiens) [compound 32]	+++ (50%-75% = +++)
41 (FVLPLVVTL; listed as Homo sapiens) [compound 41]	+++ (50%-75% = +++)
76 (ILLDESNFNHFL; listed as Homo sapiens) [compound 76]	+++ (50%-75% = +++)
87 (YLTEVFLHVV; listed as Homo sapiens) [compound 87]	+++ (50%-75% = +++)
8 (KLGPFLLNA; listed as Homo sapiens) [compound 8]	+++ (50%-75% = +++)
56 (KILDLTRVL; listed as Homo sapiens) [compound 56]	++ (20%-49% = ++)
63 (TLSSERDFAL; listed as Homo sapiens) [compound 63]	+ (<20% = +)
70 (GLFSQHFNL; listed as Homo sapiens) [compound 70]	+++ (50%-75% = +++)
54 (FINPKGNWLL; listed as Homo sapiens) [compound 54]	+++ (50%-75% = +++)
26 (KVDGVVIQL; listed as Homo sapiens) [compound 26]	+++ (50%-75% = +++)
328 (SVDSAPAAV; listed as Homo sapiens) [compound 328]	++ (20%-49% = ++)
92 (LLRGPPVARA; listed as Homo sapiens) [compound 92]	++ (20%-49% = ++)
37 (ALINDILGELVKL; listed as Homo sapiens) [compound 37]	+++ (50%-75% = +++)
14 (LLDHLSFINKI; listed as Homo sapiens) [compound 14]	++ (20%-49% = ++)
48 (TLDHKPVTV; listed as Homo sapiens) [compound 48]	++ (20%-49% = ++)
38 (KMQEDLVTL; listed as Homo sapiens) [compound 38]	+++ (50%-75% = +++)
331 (AIWKELISL; listed as Homo sapiens) [compound 331]	+++ (50%-75% = +++)
3 (TLLGKQVTL; listed as Homo sapiens) [compound 3]	+++ (50%-75% = +++)
28 (TLYSMDLMKV; listed as Homo sapiens) [compound 28]	+++ (50%-75% = +++)
83 (ELLEYLPQL; listed as Homo sapiens) [compound 83]	+++ (50%-75% = +++)
323 (ILSVVNSQL; listed as Homo sapiens) [compound 323]	+++ (50%-75% = +++)
42 (VLSPFILTL; listed as Homo sapiens) [compound 42]	+++ (50%-75% = +++)
24 (FLWNGEDSAL; listed as Homo sapiens) [compound 24]	+++ (50%-75% = +++)

Substance	MHC class I binding score, Peptide exchange
66 (FITDFYTTV; listed as Homo sapiens) [compound 66]	+++ (50%-75% = +++)
10 (KTLDVFNIIL; listed as Homo sapiens) [compound 10]	++ (20%-49% = ++)
39 (ALMAVVSGL; listed as Homo sapiens) [compound 39]	+++ (50%-75% = +++)
339 (VLGPGPPPL; listed as Homo sapiens) [compound 339]	++ (20%-49% = ++)
47 (GLYQAQVNL; listed as Homo sapiens) [compound 47]	+++ (50%-75% = +++)
93 (SLLTQPIFL; listed as Homo sapiens) [compound 93]	+++ (50%-75% = +++)
16 (HLYNNEEQV; listed as Homo sapiens) [compound 16]	++ (20%-49% = ++)
80 (TLDEYLTYL; listed as Homo sapiens) [compound 80]	+++ (50%-75% = +++)
65 (KLDGICWQV; listed as Homo sapiens) [compound 65]	+++ (50%-75% = +++)
85 (STLDGSLHAV; listed as Homo sapiens) [compound 85]	+++ (50%-75% = +++)
69 (GIYDGILHSI; listed as Homo sapiens) [compound 69]	+++ (50%-75% = +++)
71 (GLITVDIAL; listed as Homo sapiens) [compound 71]	+++ (50%-75% = +++)
61 (HLPDFVKQL; listed as Homo sapiens) [compound 61]	++ (20%-49% = ++)
325 (RLLPKVQEV; listed as Homo sapiens) [compound 325]	++ (20%-49% = ++)
27 (KVFGDLDQV; listed as Homo sapiens) [compound 27]	+++ (50%-75% = +++)
89 (YLVAHNLLL; listed as Homo sapiens) [compound 89]	+++ (50%-75% = +++)
45 (VLGPTPELV; listed as Homo sapiens) [compound 45]	+++ (50%-75% = +++)
62 (SLFNQEVQI; listed as Homo sapiens) [compound 62]	+++ (50%-75% = +++)
12 (GLIYEETRGV; listed as Homo sapiens) [compound 12]	++ (20%-49% = ++)
338 (LLYDGKLSSA; listed as Homo sapiens) [compound 338]	++ (20%-49% = ++)
91 (SSLEPQIQPV; listed as Homo sapiens) [compound 91]	+ (<20% = +)
